Results published in publication PMC7943601, “Substrate-engaged type III secretion system structures reveal gating mechanism for unfolded protein translocation” (Nature Communications, 2021).

B1: SpaR (natural protein)
chain: MFYALYFEIHHLVASAALGFARVAPIFFFLPFLNSGVLSGAPRNAIIILVALGVWPHALNEAPPFLSVAMIPLVLQEAAVGVMLGCLLSWPFWVMHALGCIIDNQRGATLSSSIDPANGIDTSEMANFLNMFAAVVYLQNGGLVTMVDVLNKSYQLCDPMNECTPSLPPLLTFINQVAQNALVLASPVVLVLLLSEVFLGLLSRFAPQMNAFAISLTVKSGIAVLIMLLYFSPVLPDNVLRLSFQATGLSSWFYERGATHVLE
notes: SpaR, export apparatus protein of the S. enterica sv; Typhimurium injectisome; One copy in the export apparatus
B2: InvG (natural protein)
chain: SEKIPVTGSGFVAKDDSLRTFFDAMALQLKEPVIVSKMAARKKITGNFEFHDPNALLEKLSLQLGLIWYFDGQAIYIYDASEMRNAVVSLRNVSLNEFNNFLKRSGLYNKNYPLRGDNRKGTFYVSGPPVYVDMVVNAATMMDKQNDGIELGRQKIGVMRLNNTFVGDRTYNLRDQKMVIPGIATAIERLLQGEEQPLGNIVSSEPPAMPAFSANGEKGKAANYAGGMSLQEALKQNAAAGNIKIVAYPDTNSLLVKGTAEQVHFIEMLVKALDVAKRHVELSLWIVDLNKSDLERLGTSWSGSITIGDKLGVSLNQSSISTLDGSRFIAAVNALEEKKQATVVSRPVLLTQENVPAIFDNNRTFYTKLIGERNVALEHVTYGTMIRVLPRFSADGQIEMSLDIEDGNDKTPQSDTTTSVDALPEVGRTLISTIARVPHGKSLLVGGYTRDANTDTVQSIPFLGKLPLIGSLFRYSSKNKSNVVRVFMIEPKEIVDPLTPDASESVNNILKQSGAWSGDDKLQKWVRVYLDRGQEAIK
notes: InvG, basal body ring protein (outer rings) of the S. enterica sv; Typhimurium injectisome; modelled as G34-I173 (lower OR) and E174-G557 (upper OR); Printed as InvG_(1-15/16); the upper outer ring was built in a C15-symmetrized map; also called InvG_(1-15/16); outer rings
B3: PrgI (natural protein)
chain: MATPWSGYLDDVSAKFDTGVDNLQTQVTEALDKLAAKPSDPALLAAYQSKLSEYNLYRNAQSNTVKVFKDIDAAIIQNFR
notes: PrgI, needle filament protein of the S. enterica sv; Typhimurium injectisome; Helical filament; 72 subunits were modelled in the substrate-trapped map; also called PrgI_(1-72); needle filament protein
B4: PrgK (natural protein)
chain: CKDKDLLKGLDQEQANEVIAVLQMHNIEANKIDSGKLGYSITVAEPDFTAAVYWIKTYQLPPRPRVEIAQMFPADSLVSSPRAEKARLYSAIEQRLEQSLQTMEGVLSARVHISYDIDAGENGRPPKPVHLSALAVYERGSPLAHQISDIKRFLKNSFADVDYDNISVVLSERSDAQLQAPGTPVKRNSFATSWIVLIILLSVMSAGFGVWYYKNHYARNKKGITADDKAKSSNE
notes: PrgK, basal body ring protein of the S. enterica sv; Typhimurium injectisome; also called PrgK_(1-24); copies: 24
B5: SpaP (natural protein)
chain: MGNDISLIALLAFSTLLPFIIASGTCFVKFSIVFVMVRNALGLQQIPSNMTLNGVALLLSMFVMWPIMHDAYVYFEDEDVTFNDISSLSKHVDEGLDGYRDYLIKYSDRELVQFFENAQLKRQYGEETETVKRDKDEIEKPSIFALLPAYALSEIKSAFKIGFYLYLPFVVVDLVVSSVLLALGMMMMSPVTISTPIKLVLFVALDGWTLLSKGLILQYMDIAT
notes: SpaP, export apparatus protein of the S. enterica sv; Typhimurium injectisome; Five copies in the export apparatus (SpaP : Q : R 5 : 4 : 1); also called SpaP1-5; SpaP pentamer
B6: PrgH (natural protein)
chain: METSKEKTITSPGPYIVRLLNSSLNGCEFPLLTGRTLFVVGQSDALTASGQLPDIPADSFFIPLDHGGVNFEIQVDTDATEIILHELKEGNSESRSVQLNTPIQVGELLILIRPESEPWVPEQPEKLETSAKKNEPRFKNGIVAALAGFFILGIGTVGTLWILNSPQRQAAELDSLLGQEKERFQVLPGRDKMLYVAAQNERDTLWARQVLARGDYDKNARVINENEENKRISIWLDTYYPQLAYYRIHFDEPRKPVFWLSRQRNTMSKKELEVLSQKLRALMPYADSVNITLMDDVTAAGQAEAGLKQQALPYSRRNHKGGVTFVIQGALDDVEILRARQFVDSYYRTWGGRYVQFAIELKDDWLKGRSFQYGAEGYIKMSPGHWYFPSPL
notes: PrgH, basal body ring protein of the S. enterica sv; Typhimurium injectisome; also called PrgH_(1-24); copies: 24
B7: SpaQ (natural protein)
chain: MDDLVFAGNKALYLVLILSGWPTIVATIIGLLVGLFQTVTQLQEQTLPFGIKLLGVCLCLFLLSGWYGEVLLSYGRQVIFLALAKG
notes: also called SpaQ1-4

Experiments:
Experiment in all cases: cryo-EM structure
PrgJ = target: T1, PrgJ (S. enterica sv. Typhimurium (endogenous …, UniProt P41785 1-101)); settings: both partners purified
T1 construct: PrgJ, inner rod protein of the S. enterica sv; Typhimurium injectisome; Six protomers form the inner rod; also called PrgJ1-6; inner rod protein

SpaP = target: B5; settings: both partners purified
InvG = target: B2; settings: both partners purified
cryo-EM structure = target: the molecule itself
SpaR = target: B1; settings: both partners purified

T1 sequence (P41785 whole entry): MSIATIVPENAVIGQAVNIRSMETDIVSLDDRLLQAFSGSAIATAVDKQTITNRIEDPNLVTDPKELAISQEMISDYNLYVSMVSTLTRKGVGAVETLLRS

| Binder | binding result (PrgJ) | stoichiometry N (cryo-EM structure) | further results |
| --- | --- | --- | --- |
| B1 | binds | – | – |
| B2 | binds | – | – |
| B3 | binds | – | binding result (SpaP): binds; binding result (InvG): binds; binding result (cryo-EM structure): binds |
| B4 | – | 24 | – |
| B5 | binds | 5 | binding result (SpaR): binds |
| B6 | – | 24 | – |
| B7 | – | 4 | binding result (SpaP): binds; binding result (SpaR): binds |
